Measurements published in patent US20210317211A1 (published 2021).

Assays:
[1] = biological target: T1, human TREM2 over-expressed on Expi 293 cells (human, UniProt Q9NZC2 19-230); assay: flow cytometry on Expi 293 cells over-expressing human TREM2; Alexa Fluor 647 secondary antibody
T1 construct: also called Expi-hTREM2; hTREM2
T1 sequence: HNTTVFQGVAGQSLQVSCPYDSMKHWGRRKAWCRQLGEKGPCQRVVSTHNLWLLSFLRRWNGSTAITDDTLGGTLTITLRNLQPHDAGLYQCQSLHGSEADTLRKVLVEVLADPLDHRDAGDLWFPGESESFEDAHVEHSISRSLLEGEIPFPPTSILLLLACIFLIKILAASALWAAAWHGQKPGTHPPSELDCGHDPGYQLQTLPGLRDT
Method: (§1) 100,000 to 500,000 Expi 293 parental cells or Expi 293 cells over-expressing human or mouse TREM2 were plated in […] well plates and dead cells were stained with Zombie Near Infrared (Biolegend). Titrations of indicated unconjugated antibodies were incubated with these cells within a range of 0 ug/ml to 10 ug/ml in a 1:3 dilution range across 8-10 points. Dependent on their isotype (higG1 or mIgG2a), these primary unconjugated antibodies were detected with Alexa Fluor 647 conjugated anti-human Fc or anti-mouse Fc secondary antibodies (Jackson Immunoresearch). Alexa Fluor 647 signal was measured by flow cytometry (BD Fortessa X-14, BD Biosciences). EC50 values were calculated by curve fitting signal generated from antibodies binding to over-expressing cells over background fluorescence generated from HEK293 parental cells in Graphpad Prism (Graphpad Software).

[2] = biological target: T2, mouse TREM2 over-expressed on Expi 293 cells (mouse, UniProt Q99NH8 19-227); assay: flow cytometry on Expi 293 cells over-expressing mouse TREM2; Alexa Fluor 647 secondary antibody
T2 construct: also called Expi-mTREM2; mTREM2
T2 sequence: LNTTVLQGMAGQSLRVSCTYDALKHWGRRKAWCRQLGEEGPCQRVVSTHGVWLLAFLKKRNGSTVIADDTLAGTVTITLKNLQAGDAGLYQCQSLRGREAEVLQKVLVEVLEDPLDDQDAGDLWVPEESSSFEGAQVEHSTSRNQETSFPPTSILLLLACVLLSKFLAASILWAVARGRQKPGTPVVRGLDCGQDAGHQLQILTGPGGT
Method: as §1

EC50 [1]: 0.6 nM
EC50 [2]: 0.9 nM
B1: Rat IgG2B Clone #237920 (R&D Systems Cat #MAB17291) (antibody, V domains shown)
VH: EVQLVESGGGLVQPGRSLKLSCAASGFTFSNYYMAWVRQAPTKGLEWVASLTNSGGSTYYRDSVKGRFTLSRDNAKSTLYLQMDSLRSEDTATYYCTREWAGSGYFDYWGQGVMVTVSS
VL: NIVMTQSPKSMSLSVGDRVTMNCKASQNVGNNLAWYQQKPGQSPKLLLYYTSNRFTGVPDRFTGGGYGTDFTLTINSVQAEDAAFYYCQRIYNSPWTFGGGTKLELKR
notes: also called mAb 237920
